No end group written: not given here.
T1: LGR7 (RXFP1) receptor (UniProt Q9HBX9 1-757, limits assumed)
T1 sequence (looked up): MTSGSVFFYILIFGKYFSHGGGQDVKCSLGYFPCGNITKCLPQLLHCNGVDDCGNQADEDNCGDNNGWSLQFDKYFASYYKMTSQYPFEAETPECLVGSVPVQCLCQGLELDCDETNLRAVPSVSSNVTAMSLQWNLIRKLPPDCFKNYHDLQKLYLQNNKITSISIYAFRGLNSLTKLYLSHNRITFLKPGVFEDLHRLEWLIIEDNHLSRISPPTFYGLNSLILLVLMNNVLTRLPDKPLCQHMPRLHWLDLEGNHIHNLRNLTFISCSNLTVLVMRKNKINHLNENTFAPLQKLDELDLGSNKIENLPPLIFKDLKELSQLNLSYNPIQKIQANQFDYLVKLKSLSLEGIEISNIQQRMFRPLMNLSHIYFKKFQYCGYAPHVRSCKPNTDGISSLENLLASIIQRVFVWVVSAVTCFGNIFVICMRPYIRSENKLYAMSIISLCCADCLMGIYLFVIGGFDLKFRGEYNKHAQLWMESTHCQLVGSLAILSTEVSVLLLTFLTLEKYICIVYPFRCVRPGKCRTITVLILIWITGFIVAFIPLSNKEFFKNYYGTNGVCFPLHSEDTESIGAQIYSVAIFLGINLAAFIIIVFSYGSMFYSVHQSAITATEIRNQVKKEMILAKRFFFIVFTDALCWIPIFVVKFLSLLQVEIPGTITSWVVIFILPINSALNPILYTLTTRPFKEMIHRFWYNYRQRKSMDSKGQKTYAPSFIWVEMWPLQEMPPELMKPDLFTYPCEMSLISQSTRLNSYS


Legend:
LGR7 (RXFP1) receptor [1] = biological target: T1, LGR7 (RXFP1) receptor; experiment: cell-based or functional assay
LGR8 (RXFP2) receptor = LGR8 (RXFP2) receptor (UniProt Q8WXD0 1-754, limits assumed); experiment: cell-based or functional assay
LGR7 (RXFP1) receptor [2] = biological target: T1, LGR7 (RXFP1) receptor; experiment: whole cell competition binding against 100 pM [125I]-H2 relaxin, LGR7-transfected HEK293T cells
Description: Non-specific binding was determined by addition of excess unlabelled relaxin (500 nM). Data were analysed using GraphPad Prism.

Sequence of LGR8 (RXFP2) receptor (Q8WXD0 whole entry): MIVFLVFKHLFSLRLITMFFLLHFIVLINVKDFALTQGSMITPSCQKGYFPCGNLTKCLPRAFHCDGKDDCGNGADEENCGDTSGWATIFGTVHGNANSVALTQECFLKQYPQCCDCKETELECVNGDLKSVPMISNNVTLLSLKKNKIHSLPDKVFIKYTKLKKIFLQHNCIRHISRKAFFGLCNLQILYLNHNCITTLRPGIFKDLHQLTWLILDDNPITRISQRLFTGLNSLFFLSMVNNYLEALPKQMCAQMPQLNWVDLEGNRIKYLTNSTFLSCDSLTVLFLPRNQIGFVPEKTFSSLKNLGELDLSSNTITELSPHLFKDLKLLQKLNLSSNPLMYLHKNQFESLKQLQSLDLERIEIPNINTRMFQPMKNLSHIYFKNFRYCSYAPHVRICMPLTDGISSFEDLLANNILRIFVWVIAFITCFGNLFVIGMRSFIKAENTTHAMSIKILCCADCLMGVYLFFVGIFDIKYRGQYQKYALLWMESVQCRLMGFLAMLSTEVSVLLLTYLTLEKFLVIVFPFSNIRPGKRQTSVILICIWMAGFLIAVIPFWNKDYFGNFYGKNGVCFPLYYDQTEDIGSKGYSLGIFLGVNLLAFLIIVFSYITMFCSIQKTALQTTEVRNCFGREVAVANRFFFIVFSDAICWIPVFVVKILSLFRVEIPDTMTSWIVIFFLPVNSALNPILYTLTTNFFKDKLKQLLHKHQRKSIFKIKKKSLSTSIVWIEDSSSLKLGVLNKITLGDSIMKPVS

LGR7 cAMP pEC50 (LGR7 (RXFP1) receptor [1]) [pEC50] | LGR8 cAMP pEC50 (LGR8 (RXFP2) receptor) [pEC50] | pKi (LGR7 (RXFP1) receptor [2]) [pKi] | Binder
10.3 | 9.13 | 9.03 | human relaxin 2 (H2), wild-type; A + B chain (ligand, disulfide (positions not given here); also: A and B chains joined by disulphide bonds, places not given here, Two-chain peptide hormone, A and B chains joined by disulphide bonds; also called H2 relaxin) chain 1: DSWMEEVIKLCGRELVRAQIAICGMSTWS chain 2: QLYSALANKCCHVGCTKRSLARFC
9.36 |  | 7.88 | human relaxin 3 (H3), wild-type; A + B chain (ligand, disulfide (positions not given here); also: A and B chains joined by disulphide bonds, places not given here, domain: B chain; Two-chain peptide hormone, A and B chains joined by disulphide bonds; also called H3 relaxin) chain 1: RAAPYGVRLCGREFIRAVIFTCGGSRW chain 2: DVLAGLSSSCCKWGCSKSEISSLC

Second part, the binder before the results:

Binder | LGR7 cAMP pEC50 (LGR7 (RXFP1) receptor [1]) [pEC50] | LGR8 cAMP pEC50 (LGR8 (RXFP2) receptor) [pEC50] | pKi (LGR7 (RXFP1) receptor [2]) [pKi]
chimeric relaxin polypeptide H2 B chain/INSL5 A chain (designed binder, Synthetic two-chain chimera; The synthesis protocol is detailed only for H2-B/H1-A; also called H2-B/INSL5-A) chain 1: DSWMEEVIKLCGRELVRAQIAICGMSTWS chain 2: DLQTLCCTDGCSMTDLSALC | 6.37 |  | 5.31
chimeric relaxin polypeptide H2 B chain/H3 relaxin A chain (designed binder, Synthetic two-chain chimera; The synthesis protocol is detailed only for H2-B/H1-A; also called H2-B/H3-A) chain 1: DSWMEEVIKLCGRELVRAQIAICGMSTWS chain 2: DVLAGLSSSCCKWGCSKSEISSLC | 8.1 | 5.34 | 6.8
chimeric relaxin polypeptide H2 B chain/INSL3 A chain (designed binder, Synthetic two-chain chimera; The synthesis protocol is detailed only for H2-B/H1-A; also called H2-B/INSL3-A) chain 1: DSWMEEVIKLCGRELVRAQIAICGMSTWS chain 2: AAATNPARYCCLSGCTQQDLLTLCPY | < 6 | > 6 | 6.21

— patent US20110092418A1 (FLOREKY INSTITUTE OF EXPERIMENTAL PHYSIOLOGY AND MEDICINE, published 2011)
